Measured values from US20170008962A1 (Dana-Farber, published 2017).

Assays:
[1] = target: T1, soluble, recombinant MICB with a single BirA biotinylation site (human, UniProt Q29980 23-309); experiment: cytometric bead assay, biotinylated protein on streptavidin beads, FITC anti-human IgG
T1 sequence (looked up): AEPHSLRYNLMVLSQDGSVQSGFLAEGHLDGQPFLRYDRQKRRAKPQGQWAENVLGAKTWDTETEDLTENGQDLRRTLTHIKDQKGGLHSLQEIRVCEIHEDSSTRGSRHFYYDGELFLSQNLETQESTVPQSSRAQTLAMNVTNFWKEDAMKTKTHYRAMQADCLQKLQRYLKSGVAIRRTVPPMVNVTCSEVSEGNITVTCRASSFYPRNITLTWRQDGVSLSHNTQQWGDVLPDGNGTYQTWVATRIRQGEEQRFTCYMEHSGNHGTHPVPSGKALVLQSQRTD

Ang-like-3 = target: T2, Ang-like-3 (human, UniProt Q9Y5C1 17-460); experiment: ELISA, protein coated on plate, anti-human IgG-Europium
T2 sequence (looked up): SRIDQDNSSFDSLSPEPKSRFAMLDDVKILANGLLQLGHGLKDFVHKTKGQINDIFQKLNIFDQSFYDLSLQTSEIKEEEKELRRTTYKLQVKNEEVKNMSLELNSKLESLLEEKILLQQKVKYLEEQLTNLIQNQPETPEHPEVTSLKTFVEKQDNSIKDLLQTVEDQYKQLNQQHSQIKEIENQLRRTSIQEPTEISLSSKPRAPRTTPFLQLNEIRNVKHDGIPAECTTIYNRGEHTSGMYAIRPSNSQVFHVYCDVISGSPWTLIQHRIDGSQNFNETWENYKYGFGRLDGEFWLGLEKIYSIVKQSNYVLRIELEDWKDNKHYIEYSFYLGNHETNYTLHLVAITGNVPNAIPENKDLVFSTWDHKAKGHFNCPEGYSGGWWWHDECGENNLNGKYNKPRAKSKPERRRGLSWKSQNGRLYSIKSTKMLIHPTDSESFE

[2] = target: T3, recombinant human angiopoietin-1 (human, UniProt Q15389 20-498); experiment: ELISA, angiopoietin coated at 4 µg/mL, antibody 20 µg/mL-0.16 µg/mL, anti-human IgG-Europium
T3 construct: also called Ang-1
T3 sequence (looked up): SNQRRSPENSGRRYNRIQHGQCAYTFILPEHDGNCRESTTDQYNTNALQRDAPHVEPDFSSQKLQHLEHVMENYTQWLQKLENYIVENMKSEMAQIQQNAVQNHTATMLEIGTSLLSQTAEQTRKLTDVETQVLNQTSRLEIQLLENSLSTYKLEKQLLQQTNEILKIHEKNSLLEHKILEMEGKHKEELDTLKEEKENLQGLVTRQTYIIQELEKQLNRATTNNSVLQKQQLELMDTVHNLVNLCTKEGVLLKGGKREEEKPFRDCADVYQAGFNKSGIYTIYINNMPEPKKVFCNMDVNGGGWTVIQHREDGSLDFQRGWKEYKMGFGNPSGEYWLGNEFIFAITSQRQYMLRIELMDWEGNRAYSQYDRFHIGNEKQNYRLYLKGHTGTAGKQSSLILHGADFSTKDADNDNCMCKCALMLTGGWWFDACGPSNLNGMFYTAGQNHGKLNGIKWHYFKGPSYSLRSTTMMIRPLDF

[3] = target: T4, recombinant human angiopoietin-2 (human, UniProt O15123 19-496); experiment: as above
T4 construct: also called Ang-2
T4 sequence (looked up): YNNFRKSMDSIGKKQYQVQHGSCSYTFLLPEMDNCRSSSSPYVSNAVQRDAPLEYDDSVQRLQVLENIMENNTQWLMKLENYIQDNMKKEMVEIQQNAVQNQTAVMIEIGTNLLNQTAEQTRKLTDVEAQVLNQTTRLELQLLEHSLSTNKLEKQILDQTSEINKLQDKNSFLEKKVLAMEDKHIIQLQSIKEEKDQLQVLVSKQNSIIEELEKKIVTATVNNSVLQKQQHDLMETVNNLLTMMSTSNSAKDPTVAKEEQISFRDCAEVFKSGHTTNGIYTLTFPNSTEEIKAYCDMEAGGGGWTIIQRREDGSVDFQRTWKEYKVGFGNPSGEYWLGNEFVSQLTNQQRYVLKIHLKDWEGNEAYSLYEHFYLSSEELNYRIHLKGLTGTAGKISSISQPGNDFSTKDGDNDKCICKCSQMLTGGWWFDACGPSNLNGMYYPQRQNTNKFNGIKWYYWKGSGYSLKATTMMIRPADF

[4] = target: T5, recombinant human angiopoietin-4 (human, UniProt Q9Y264 25-503); experiment: as above
T5 construct: also called Ang-4; Ang4
T5 sequence (looked up): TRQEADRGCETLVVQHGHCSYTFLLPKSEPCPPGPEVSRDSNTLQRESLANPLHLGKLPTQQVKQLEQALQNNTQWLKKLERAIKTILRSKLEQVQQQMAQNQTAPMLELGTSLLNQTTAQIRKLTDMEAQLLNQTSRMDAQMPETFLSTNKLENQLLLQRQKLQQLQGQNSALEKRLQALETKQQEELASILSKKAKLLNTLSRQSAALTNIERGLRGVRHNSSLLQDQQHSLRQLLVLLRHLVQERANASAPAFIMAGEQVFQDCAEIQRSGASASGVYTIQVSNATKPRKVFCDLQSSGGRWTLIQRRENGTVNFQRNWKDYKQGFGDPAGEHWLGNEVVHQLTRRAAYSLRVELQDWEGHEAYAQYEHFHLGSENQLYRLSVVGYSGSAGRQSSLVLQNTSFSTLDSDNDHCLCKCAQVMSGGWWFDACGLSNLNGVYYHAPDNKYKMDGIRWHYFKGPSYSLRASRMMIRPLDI

[5] = target: T3, recombinant human angiopoietin-1; experiment: ELISA, protein coated at 4 µg/ml, antibody at 20, 4, 0.8 and 0.16 µg/ml, europium conjugated anti-human IgG
[6] = target: T4, recombinant human angiopoietin-2; experiment: as above
[7] = target: T5, recombinant human angiopoietin-4; experiment: as above

B1: CM24002 Ab2 (anti-MICA antibody ID-6 of Table 1) (antibody, V domains shown)
VH: QVQLQESGPGLVEPSGTLSLTCTVSGGSISRSNWWSWVRQPPGEGLEWIGEIHHIGRSSYNPSLKSRVTMSVDKSQNQFSLRLTSVTAADTAVYYCAKNGYYAMDVWGQGTTVTVSS
VL: EIVLTQSPGTLSLSPGERATLSCRASQSVSSDFLAWYQQKPGQAPRLLIYATSFRATGISDRFSGSGSGTDFSLTINRLEPEDFAVYYCQHYRSSPPWYTFAQGTKLDMRRTVAAPSV
binding result [1]: binds

B2: CM24002 Ab4 (anti-MICA antibody ID-7 of Table 1) (antibody, V domains shown)
VH: QVQLQESGPGLVKPSGTLSLTCAVSGASITNGAWWSWVRQPPGKGLEWIGEIYLNGNTNSNPSLKSRVIISVDKSKNHFSLTLNSVTAADTAVYYCAKNAAYNLEFWGQGALVTVSS
VL: EIVLTQSPGTLSLSPGERATLSCRASQTVSSPYVAWYQQKRGQAPRLLIYGASTRATGIPDRFSGSGSGTDFTLTISRLEPEDFAVYYCQQYDRSYYYTFGQGTKLEIK
binding result [1]: binds

B3: CM33322 Ab11 (anti-MICA antibody ID-8 of Table 1) (antibody, V domains shown)
VH: QVQLQESGPGLVKPSENLSLTCTVSDASMSDYHWSWIRQAAGKGLEWIGRMYSTGSPYYKPSLKGRVTMSIDTSKNQFSLKLASVTAADTAIYYCASGQHIGGWVPPDFWGQGTLVTVSS
VL: DIVMTQTPLSSPVTLGQPASISCRSSEGLVYSDGDTYLSWFHQRPGQPPRLLIYKISNRFSGVPDRFSGSGAGTDFTLKISRVEAEDVGVYYCMQATHFPWTFGQGTKVEVKR
binding result [1]: binds

B4: antibody ID 2 (anti-angiopoietin-2 antibody) (antibody, V domains shown)
VH: EVQLVESGGGLVQPGGSLRLSCAASGFTFSSYAMSWVRQAPGKGLEWVSGIYWSGGSTYYADSVKGRFTISRDISKNTLYLQMNSLRADDTAVYYCARGDYYGSGAHFDYWGQGTLVTVSS
VL: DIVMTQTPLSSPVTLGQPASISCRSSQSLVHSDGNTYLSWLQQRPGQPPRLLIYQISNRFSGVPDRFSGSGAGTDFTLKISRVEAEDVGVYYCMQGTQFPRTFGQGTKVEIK
binding result (Ang-like-3): no binding (tested: 20 µg/mL-0.16 µg/mL) | binding result [2]: binds | binding result [3]: binds | binding result [4]: binds

B5: antibody ID 3 (anti-angiopoietin-2 antibody) (antibody, V domains shown)
VH: EVQLVESGGGLVQPGGSLRLSCAASGFTFSNNWMHWVRQAPGKGLEWISEIRSDGNFTRYADSMKGRFTISRDNAKSTLYLQMNSLRVEDTGLYYCARDYPYSIDYWGQGTLVTVSS
VL: DIVMTQTPLSSPVTLGQPASISCTSSQSLVHSNGNTYLSWLQQRPGQPPRLLIYEISKRVSGVPDRFSGSGAGTDFTLKISRVEAEDVGVYYCMQGKQLRTFGQGTKLEIK
binding result (Ang-like-3): no binding (tested: 20 µg/mL-0.16 µg/mL) | binding result [2]: binds | binding result [3]: binds | binding result [4]: binds

B6: antibody ID 4 (anti-angiopoietin-2 antibody) (antibody, V domains shown)
VH: EVQLVESGGGLVQPGGSVRLSCAASGFILSNFAMSWVRQAPGKGLDWVSGNFGGRENTYYADSVKGRFTISRDSSKSTLYLQMNNLRAEDTAVYYCARGDYHGSGAHFDYWGQGILVTVSS
VL: DIVMTQSPLSSPVILGQPASISCRSSQSLLHSDGNTYLSWLHQRPGQPPRLLIYQISNRFSGVPDRFSGSGTGTDFTLKISRVEAEDAGIYYCMQGTEFPRTFGQGTKVEIK
binding result (Ang-like-3): no binding (tested: 20 µg/mL-0.16 µg/mL) | binding result [2]: binds | binding result [3]: binds | binding result [4]: binds

B7: antibody ID 5 (anti-angiopoietin-2 antibody) (antibody, V domains shown)
VH: EVQLVESGGGLIQPGGSLRLSCATSGFTFRTSSMSWVRRAPGKGLEWVSAIGAESHDTHYTDSAEGRFTISKDYSKNTVYLQMNGLRVDDTAIYYCAHHYYYGSRQKPKDWGDAFDMWGQGTMVSVSS
VL: DIQMTQSPSSVSASVGDRVTITCRASQDISTWLTWYQQRAGKAPNLLIYGASTLEDGVPSRFSGSGSGTDFTLTIDSLQPDDFATYYCQQSHSFPYTFGQGTQLGIS
binding result (Ang-like-3): no binding (tested: 20 µg/mL-0.16 µg/mL) | binding result [2]: binds | binding result [3]: binds | binding result [4]: binds

B8: anti-Ang2 Ab6 (antibody ID-10 of Table 1, anti-angiopoietin-2 antibody) (antibody, V domains shown)
VH: EVQLVESGGGLIQPGGSLRLSCAASGFLISSYFMSWVRQAPGKGPEWVSVIYSDGSTYYVDSVKGRFTISTDNSKNTLYLQMNSLRAEDTARYYCATRHLNYDGDHWGQGTLVTVSS
VL: DVVMTQSPLSLPVTLGQPASISCRSSQSLVHSDGNTYLNWFHQRPGQSPRRLIYKVSKRDSGVPDRFSGSGSGSDFTLKISRVEAEDVGIYYCMQGTHWPTFGQGTKVEIKR
notes: also called anti-Ang6 Ab2
binding result [5]: binds | binding result [6]: binds | binding result [7]: binds
